Here are results for one substance from PMC12386283, “Elucidating the Complex Structural and Molecular Mechanisms Driving P-Glycoprotein-Mediated Transport of Cardiac Glycosides” (International Journal of Molecular Sciences, 2025).

The subject of data set [1] is C[C@H]1O[C@@H](O[C@H]2[C@@H](O)C[C@H](O[C@H]3[C@@H](O)C[C@H](O[C@H]4CC[C@@]5(C)[C@H](CC[C@@H]6[C@@H]5CC[C@]5(C)[C@@H](C7=CC(=O)OC7)CC[C@]65O)C4)O[C@@H]3C)O[C@@H]2C)C[C@H](O)[C@@H]1O. Put plainly: purified protein, by the assay type. The conditions noted are these: other: 37 °C, 3.2 mM ATP, 50 nM proteoliposome, modified Michaelis-Menten fit, pH 7.4.
Description: The Chifflet method is a colorimetric method that measures the amount of free inorganic phosphate (Pi) through the formation of ammonium molybdate and Pi complex, which produces a strong absorbance at 850 nm. The absorbance was measured on a 96-well plate using a CLARIOstar microplate reader (BMG Labtech, Ortenberg, Germany). […] The final concentrations of the proteoliposome and ATP were maintained at 50 nM and 3.2 mM, respectively. Orthovanadate was used as a control and run in parallel to the samples. Finally, the kinetic curves for ATPase activity were fit to a modified Michaelis-Menten equation (Equation (1)) [83]. Igor 6.2 Pro software (Wavemetrics, Tigard, OR, USA) was used for data analysis.(1) V=VmaxS/Km+S+Vbasal where V = Rate of ATP hydrolysis; Vmax = Maximum velocity of ATP hydrolysis; [S] = Substrate concentration; Km = Michaelis–Menten constant; and Vbasal = basal ATPase activity.
Data set [2] concerns C[C@]12CC[C@H](O)C[C@H]1CC[C@@H]1[C@@H]2C[C@@H](O)[C@]2(C)[C@@H](C3=CC(=O)OC3)CC[C@]12O. Put plainly: purified protein, by the assay type. Conditions: other: 37 °C, 3.2 mM ATP, 50 nM proteoliposome, modified Michaelis-Menten fit, pH 7.4.

wild-type mouse Pgp (MDR3) (Mus musculus), sequence (chain, as listed by the source): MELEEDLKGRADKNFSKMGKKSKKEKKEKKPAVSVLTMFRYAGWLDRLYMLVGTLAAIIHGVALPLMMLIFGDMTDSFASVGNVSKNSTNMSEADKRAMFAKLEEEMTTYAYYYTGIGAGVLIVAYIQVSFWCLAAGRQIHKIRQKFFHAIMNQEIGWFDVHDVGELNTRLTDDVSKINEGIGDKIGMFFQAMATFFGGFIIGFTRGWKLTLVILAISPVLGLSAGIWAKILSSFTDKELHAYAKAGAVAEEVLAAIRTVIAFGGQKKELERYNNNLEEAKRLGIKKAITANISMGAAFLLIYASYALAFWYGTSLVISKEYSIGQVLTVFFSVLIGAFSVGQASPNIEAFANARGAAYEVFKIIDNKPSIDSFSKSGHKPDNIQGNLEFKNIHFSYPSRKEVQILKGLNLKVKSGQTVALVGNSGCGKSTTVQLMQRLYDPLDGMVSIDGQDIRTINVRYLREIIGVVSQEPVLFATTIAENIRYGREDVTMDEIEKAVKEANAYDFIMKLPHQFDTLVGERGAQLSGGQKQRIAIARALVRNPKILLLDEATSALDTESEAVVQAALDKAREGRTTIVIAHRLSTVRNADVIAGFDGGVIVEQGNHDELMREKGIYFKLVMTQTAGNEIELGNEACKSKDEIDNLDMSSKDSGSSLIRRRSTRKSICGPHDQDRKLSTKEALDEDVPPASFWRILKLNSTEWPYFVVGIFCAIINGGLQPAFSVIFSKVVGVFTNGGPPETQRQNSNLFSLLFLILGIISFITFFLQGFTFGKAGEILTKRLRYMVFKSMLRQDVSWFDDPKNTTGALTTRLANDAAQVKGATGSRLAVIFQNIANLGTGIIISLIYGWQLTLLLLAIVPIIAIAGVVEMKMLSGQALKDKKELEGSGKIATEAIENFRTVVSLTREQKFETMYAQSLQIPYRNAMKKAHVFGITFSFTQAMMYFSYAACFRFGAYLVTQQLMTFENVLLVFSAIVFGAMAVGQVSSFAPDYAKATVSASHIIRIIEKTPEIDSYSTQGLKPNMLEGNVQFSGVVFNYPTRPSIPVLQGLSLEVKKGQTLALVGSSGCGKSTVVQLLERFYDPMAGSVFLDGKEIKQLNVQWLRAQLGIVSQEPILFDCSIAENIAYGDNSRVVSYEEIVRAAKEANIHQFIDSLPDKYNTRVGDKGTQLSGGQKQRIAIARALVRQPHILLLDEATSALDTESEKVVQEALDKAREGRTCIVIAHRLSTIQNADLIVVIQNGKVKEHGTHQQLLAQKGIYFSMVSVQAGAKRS

In the case of “wild-type mouse Pgp (MDR3) (Mus musculus)”, the Km in data set [1] is given as 99.19 ± 13.3 µM. Also, in data set [2], the Km is 426.82 ± 173.26 µM and the Vmax is 541.92 ± 111 nmol/min/mg.

For orientation: Km means the substrate concentration at which the rate is half of its maximum. As usually defined, the Vmax is the top rate of the reaction or transport when substrate is in excess.
